# From the Immune Epitope Database (IEDB)
# Key:
# HLA-A*02:01 [1] = test: IEDB peptide-MHC binding, purified MHC/competitive/radioactivity; ≥ and ≤ were set here for values at or beyond the usual limits of such assays
# HLA-A*02:01 [2] = test: IEDB peptide-MHC binding, purified MHC/direct/fluorescence; filed as Kd, often an IC50 or EC50 that approximates it; ≥ and ≤ were set here for values at or beyond the usual limits of such assays; conditions: source organism: Camelpox virus CMS
# HLA-A*68:02 = test: as above; conditions: source organism: Camelpox virus CMS
# HLA-A*69:01 = test: as above; conditions: source organism: Camelpox virus CMS
# HLA-B*07:02 = test: as above; conditions: source organism: Camelpox virus CMS
# HLA-B*15:01 = test: as above; conditions: source organism: Camelpox virus CMS
# HLA-B*18:01 = test: as above; conditions: source organism: Camelpox virus CMS
# HLA-B*27:05 = test: as above; conditions: source organism: Camelpox virus CMS
# HLA-B*39:01 = test: as above; conditions: source organism: Camelpox virus CMS
# HLA-B*40:01 = test: as above; conditions: source organism: Camelpox virus CMS
# HLA-B*46:01 [3] = test: as above; conditions: source organism: Camelpox virus CMS
# HLA-B*48:01 = test: as above; conditions: source organism: Camelpox virus CMS
# HLA-B*58:01 = test: as above
# HLA-A*01:01 = test: IEDB peptide-MHC binding, purified MHC/competitive/fluorescence; filed as Kd, often an IC50 or EC50 that approximates it; ≥ and ≤ were set here for values at or beyond the usual limits of such assays; conditions: source organism: Variola virus
# HLA-A*26:02 = test: as above; conditions: source organism: Variola virus
# HLA-B*15:17 = test: as above; conditions: source organism: Variola virus
# HLA-B*57:01 [4] = test: as above; conditions: source organism: Variola virus
# HLA-B*57:01 [5] = test: IEDB peptide-MHC binding, purified MHC/direct/fluorescence; filed as Kd, often an IC50 or EC50 that approximates it; ≥ and ≤ were set here for values at or beyond the usual limits of such assays; conditions: source organism: Mycobacterium tuberculosis variant bovis
# HLA-C*12:03 = test: as above
# HLA-B*46:01 [6] = test: IEDB peptide-MHC binding, purified MHC/competitive/fluorescence; filed as Kd, often an IC50 or EC50 that approximates it; ≥ and ≤ were set here for values at or beyond the usual limits of such assays; conditions: source organism: Mycobacterium tuberculosis variant bovis BCG str. Pasteur 1173P2
# HLA-C*03:03 = test: IEDB peptide-MHC binding, purified MHC/direct/fluorescence; filed as Kd, often an IC50 or EC50 that approximates it; ≥ and ≤ were set here for values at or beyond the usual limits of such assays; conditions: source organism: Canarypox virus
# HLA-C*15:02 = test: as above; conditions: source organism: Canarypox virus
# HLA-A*02:01 [7] = test: IEDB peptide-MHC binding, purified MHC/competitive/fluorescence; filed as Kd, often an IC50 or EC50 that approximates it; ≥ and ≤ were set here for values at or beyond the usual limits of such assays; conditions: source organism: Canarypox virus
# HLA-A*02:11 = test: as above; conditions: source organism: Canarypox virus
sequence,measurement,setting,value
LLDVPTAAV,IC50,HLA-A*02:01 [1]; source organism: Homo sapiens,10 nM
NLIYRNLHL,IC50,HLA-A*02:01 [1]; source organism: Rhinovirus A,200 nM
SSDDIPPRW,Kd,HLA-A*02:01 [2],≥ 20 µM
same,Kd,HLA-A*68:02,≥ 20 µM
same,Kd,HLA-A*69:01,≥ 20 µM
same,Kd,HLA-B*07:02,≥ 20 µM
same,Kd,HLA-B*15:01,≥ 20 µM
same,Kd,HLA-B*18:01,≥ 20 µM
same,Kd,HLA-B*27:05,≥ 20 µM
same,Kd,HLA-B*39:01,≥ 20 µM
same,Kd,HLA-B*40:01,≥ 20 µM
same,Kd,HLA-B*46:01 [3],≥ 20 µM
same,Kd,HLA-B*48:01,≥ 20 µM
same,Kd,HLA-B*58:01; source organism: Camelpox virus CMS,27.9 nM
same,Kd,HLA-A*01:01,≥ 20 µM
same,Kd,HLA-A*26:02,≥ 20 µM
same,Kd,HLA-B*15:17,≥ 20 µM
same,Kd,HLA-B*57:01 [4],1480 nM
VAFYCAGRF,Kd,HLA-B*57:01 [5],450 nM
same,Kd,HLA-B*58:01; source organism: Mycobacterium tuberculosis variant bovis,112 nM
same,Kd,HLA-C*12:03; source organism: Mycobacterium tuberculosis variant bovis BCG str. Pasteur 1173P2,58 nM
same,Kd,HLA-B*46:01 [6],748 nM
YIIPCILIL,Kd,HLA-C*03:03,229 nM
same,Kd,HLA-C*12:03; source organism: Canarypox virus,327 nM
same,Kd,HLA-C*15:02,≥ 20 µM
same,Kd,HLA-A*02:01 [7],59.4 nM
same,Kd,HLA-A*02:11,240 nM
YLDSGIHSGA,IC50,HLA-A*02:01 [1]; source organism: Homo sapiens,83.5 nM
